Experiment: yeast display, Sf9 membrane polyspecificity reagent, FACS + sequencing; frameworks hold sequencing errors
Summary of the method: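 Galactose induction of a Saccharomyces cerevisiae BJ5465 synthetic nanobody display library ran 36–48 hours. The cells were then stained for 1 hour at 4 °C with 10% biotinylated, detergent-solubilized Sf9 membrane reagent, pulled down on streptavidin microbeads and FACS-sorted into low and high (top ~1%) gates on expression and reagent-binding fluorescence. Labels for polyreactivity follow the gate of origin.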

Row | Sequence | polyreactivity (PSR sort gate)
1 | QVHLVESGGGLDQAGGSLRLSCAASGRIFPLYAMGWYRQAPGKERELVAAISSGGTTYYADSVKGRFTISRDNAKNTVYLQMHSLKPEDTAVYYCARRPAQRWGRFDYWGQGTQVTVSS | low polyreactivity
2 | QVHLVESGGGLVQAGGSLRLSCDASGSIFASNTMGWYRQEPGQERELVAGITKIGSSTYYADSVKGRFTISRDHAKNTVYLKMNSLTPEDTAVYYCNAYGPNIYSSRYEYWGQGTQVTVSS | low polyreactivity
3 | QVQLVESGGGLVQAGGSLRLSCAASGITFAYYVMGWYRQAPGKERELVATITGRGGSTSYADSVKGRFTISRDNEKNPVYLQMNSLKPEETAVYYCATGRYSVADNYWGQGTQVTVSS | high polyreactivity
4 | QVQLVESGGGLVQAGGSLRLSCAASGFIFTDYAMGWYRQAPGKERELVAAISSGGRTYYAVSVKGRFTISRDNAKNTVYIQMNSLKPEDTAVYYCARGGRAEGWGQGTQVTVSS | high polyreactivity
5 | QVQLVESGGGLVQAGGSLRLSCAASGRNFYYYTMGWYRQAPGKERALVASISQSGARTYYADSVKGRFTISRDNSKNTVYLQMNSLKPVYTAVYYCNAVGTGGYHYWGQGTQVTVSS | high polyreactivity
6 | QVQLVESGGGLVQAGGSLRLSCAASGLTFKRYAMGWYRQAPGKERELVASITGNGGSTYYADSVKGRFTISRDNAKNTVYLQMNSLKPEDTAVYYCNARRYVRTSQQPLYDYWGQGTQVTVSS | high polyreactivity
7 | QVQLVESGGGLVQAGGSHRLSCSASGRIFGLYAMGWYRQAPGKERELVAAITSSTGSTYYADSVKGRFTISRDNAKNTVYLQMNSLKPEDTAVYYCAADLYSPSIYGYIYYTWLDYWGQGTQVTVSS | high polyreactivity
8 | QVQLVESGGGLVQAGGSLRLSCAASGRIFWANAMGWYRQAPGKERELVAAISRRGGSTYYADSVKGRFTISRDNAKNTVSLQMNSLKPEDTAVYYCNAVSPYTSDDYDYWGQGTQVTVSS | high polyreactivity
9 | QVQLVESGGGLVQAGGSLRLSCAASGRIFGDYGMGWYRQAPGNERELVAAITDRGGTTYYADSVKGRFTISRDNAKNTVYLQMNSLKPEDTAVYYCNARQSDIFDYDYWGQGTQVTVSS | low polyreactivity
10 | QVQLVESGGGLVQAGGSLRLSCAASGFIFSLYAMGWYRQAPGKERELVAAISKRGGSTNYADSVKGRFTISRDNAKNTVFLQMNSLKPEDTAVYYCAKARPGFLYDHWGQGTEVTVSS | high polyreactivity
11 | QVQLVESGGGLVQAGGSLRLSCAASGRNFYTYTMGWYRQAPGKERELVAAISKSGTSTYYADSVKGRFTISRDNAKNTVYLQMTSLKPEDSAVYYCAARAYYARFLMGYWGQGTQVTVSS | high polyreactivity
12 | QVQLVESGGGLFQAGGSLRLSSAASGSTFDPYAMGWSRQAPGKERELVATITYSGGRTYYADSVKGRFTISGDNAKNTVYLQMNSLKPEDTAVYYCAVDVVYWGGDYCGQGTQVTVSS | low polyreactivity
13 | QVHLVESVGGLVQAGGSLRLSCASSGFTFPYYAMGWYRQQPGKERELVAAISWIGDSTYYADSVKGRFTISRDNAKNTVYLQMNSLKPEDTAVYYCAAGYKWSIPNRDYDYWGQGTQVTVSS | low polyreactivity
14 | QVQLLESGGGLVQAGGSLRLSCAASGSIFYRYAMGWYRQAPGKEREFVAAISGSGSSTYYADSVKGRFTISRDNAKNTVYLQMNSLKPEDTAVYYCAARWRYYGSFDYWGQGTQVTVSS | high polyreactivity
15 | QDQLVESVGGLVQAGGSLPLSSAASGLTFKRNAMRWYSQAPGKERELVAAIRYSTDSTNYADSVKGRFTISRDNAKNTVYCQMNSLKPESTAVYYCAKDKQDYEYWGQGTQVTVSS | low polyreactivity
16 | QVQLVESGGGLVQAGGSLRLSCAASGSTFYQYVMGWYRQAPGKERELVAAISGSGGSTYYADSVKGRFTISRDNAKTTVYLQMNSLKPEDTAVYYCAAVGRSKRDGYWGQGTQVTVSS | high polyreactivity
17 | QVQLVESGGGLVQAGGSLRLSCAASGFIFDYYAMGWYRHAPGKERELVAAITSRGGSTYYADSVKGRFTISRDNAKNTVYLQMNSLKPEDTAVYYCAARRRSAEYNYWGQGTQVTVSS | high polyreactivity
18 | QVQLVESGGGLVQAGGSLRLSCAASGSTFDGNAMGWYRQAPGKERELVAAITSGGSTNYADSVKGRFTISRDNAKNTVYLQMNSLKPEDTAVYYCAADTVSFSILYDYWGQGTQVTVSS | low polyreactivity
19 | QVQLVESGGGLVQAGGSLRLSCAASGSIFSDYAMGWYRQAPGKERELVAAITQSGVSTYADSVKGRFTISRDNAKNTVYLQMNSLKPEDTAVYYCAADEVPGFGYPPYPWFDYWGQGTQVTVSS | low polyreactivity
20 | QVQLVESGGGLVQAGGSLRLSCAASGRTYVKNAMGWYRQAPGKERELVAAITSGGSTYYADSVKGRFTISRDNAKNTVYLQMNSLKPEDTAVYYCAAAWSSRYVSRYYYWGQGTQVTVSS | high polyreactivity
21 | QVQLVESGGGLVQEGGSIRLSCDASGFIFDVYAIGWYRTAAGKERELVDAISSVGSTYYADSVKGRFTISRDNATNTVYLQMNSLKPEDTAVYYCADVRFYTYNYWGQGTQVTVSS | low polyreactivity
22 | QVQLVESGGGLVQAGGSLRLSCAASGSIFTYYAMGWYRQAPGKERELVAAITSTGGSTYYADSVKGRFTISRDNAKNTVYLQMNSQKPEDTAVYYCATDYGYYDYWGQGTQVTVSS | low polyreactivity

Row | Sequence | polyreactivity (PSR sort gate)
23 | QVQIVESGGGLVQAGGSLRLSCAASGITFGPYAMGWYRQAPWKERELVAAISYSGGNTYYADSVKGRFTISRDNAKNTVYLQMNSLKPEDTAVDYCARVQSLKYNYWGQGTQVTVSS | high polyreactivity
24 | QVQLVESGGGLVQAGGSLRLSCAASGSTFAWYAMGWYRQAPGKERELVAAISRTGRTYYADSVKGRFTISRDNAKNTVYLQMNSLKPEDTAVYYCAARIERFYRDQRYDYWGQGTQVTVSS | high polyreactivity
25 | QVQLVESWGVLVQAGGSLRLSCAASGYTFLVYAMGWYRQAPGKERELVAGITRGSSTYADSVKGRFTISRDNAKNTVYLQMNSLKPEDTAVYYCAARFAKQDYDYWGQGTQVTVSS | high polyreactivity
26 | QVQLVESGGGLVQAGGSLRLSCAASGSTFGKYAMGWYRQAPGKERELVAAITTGGNTSYADSVKGRFTISRDNANNTVYLQMNSLKPEDTAVYYCNAKRSFRVDYWGQGTQVTVSS | low polyreactivity
27 | QVQLVESGGGLVQAGGSLRLSCAASGIIFDTYAMGWYRPAPGKEREFVARISYSGGTTYYADSVKGRFTSSRDNAKNTVYLQMNSLKPEDTAVYYCATVSRRFYRWSSRYDYWGQGTQVTVSS | high polyreactivity
28 | QVQLVESGGGLVQAGGSLRLSSASSGNILQGNAMGSYRQAPGKEMELVAAITSDGSTYADSVKGRFTISRDNAQNTVYLQMNSLKPEDTAVFYCNADGITSLPVTALDYWGQGTQVTVSS | low polyreactivity
29 | QVQLVESGGGLVQAGGSLRLTCAASGTFFMGWYRQAPGKERELVAGISISDGSTYYADSVKGRFTISRDNAKNTVYLQMNSLKPEDTAVYYCAADSHYLYDYWGQGTQVTVSS | low polyreactivity
30 | QVQLVESGGGLVQAGGSLRLSCAASGSIFQSYAMGWYIQAPGKERELVAAISARGGTTNYADSVKGRFTISRDNAKNTVYLQMNSLKPEDTAVYYCAKVYRYGYSKYYYWGQGTQVTVSS | high polyreactivity
31 | QVQLVESGGGLVQAGGSLRLSCAASGRIFYYYAMGWYRQAPGKEREIVAAISASGGSTYADSVKGRFTISRDNAKNTVYLQMNSLKPEDTAVYYCATVYYYTYAWLDLYGGYTFEYWGQGTQVTVSS | low polyreactivity
32 | QVQLVESGGGLVQAGGSLRLSCAASGITFERNGMGWYRQAPGKERELVAAIRSGGSTYYADSVKGRFTISRDNAKNTVYLQMNSLKPEDTAVYYCNAPYGRQGYDYWGQGTQVTVSS | low polyreactivity
33 | QVQLVESGGGLVQAGGSLRLSCAASGRTFVYNAMGWYRQAAGKEWELVAAISSDGASTYYADSVKGRFTISRDNAKNTAYLQMNSLKPEDTAVYYCAADFSYYSYEHYYWGQGTQVTVSS | low polyreactivity
34 | QVQLVESGGGLVQAGGSLRLSCAASGRIFETNGMGWYRQAPGKERELVAAITRSGGVRTYADSVKGRFTISRDNAKNTVYLQMNSLKPEDTAVYYCNKRSILGRGTPSPYKRMYHWGQGTQVTVSS | low polyreactivity
35 | QVQLVESGGGLVQSGASLRLSCAASGLIIGLYALGWYRQAPGKERELVAAISDNGARTYYADSVKGRFTISRDNAKNTVYLQMNSLKPEDTAVYYCARDQSYHYNYWGQGTQVTVSS | low polyreactivity
36 | QVQLVETGGCLVQAGCSLRLSCAASGIIFYEYAMGRYRQAPGKERELVAAIDWSGGSTYYADSVKGRFTISRDNAKNTVYLQMNRLKPEDSAVYYCAAQWAWVDYFGNWYASTYDYWGQGTQVTVSS | high polyreactivity
37 | QVQHVESGGGLVQAGGSLRLSCAASGRTFGGNAMGWYRQAPGKERELVAAISKSGGRTYYADSVKGRFTISRDNAKNTVYLQMNSLKPEDTAVYYCNKVLSVSQAGGFDYWGQGTQVTVSS | high polyreactivity
38 | QVQHVESGGGLVQAGGSLRLSSAASGGTFNVYAMGWYRQAPGKESELVAAIRWSGGSTYYADSVKGRFTISRDNAKNTVYLQMNSLKPEDTAVYFCAARFYGRSQTYGSWGLGTQVTVSS | high polyreactivity
39 | QVQLVESGGRLVQAGGSLRLSCAPSGFIFGYYAMGWYRQAPGKERELVAAISPSGGRTYYADSVKGRFTISRDNAKITVFLQMNSLKPEDTAVYYCAAEYAYSLDPEEDYWGQGTQVTVSS | high polyreactivity
40 | QVQLVESGGGLVQAGGSLRLSCASSGLTFRNYAMGGYRPAPGKERELVAAITVSGGSTYYADSVKGRFTISRDNAKNTVYLQMNSLKPEDTAVYYCAARVIHTTYSRNYYYWGQGTQVTVSS | high polyreactivity
41 | QVQLVESGGGLVQAGGSLRLSCAAYGGIFPAYAMGWYRQAPGKERELVAAISSSGRTYYADSVKGRFTISRDNAKNTVYLQMNSVKPEDTAVYYCAAYGGYRGWVFGSYGSWGQGTQVTVSS | high polyreactivity
42 | QVQLVESGGGLVQAGGRLRLSCAASGSIIHYYTMGWSRQAPGKERELVAAINWSGTRTYYADSVKGRFTISRDNAKNTVYLQMNSLKPEDTAVYYCAAESYYPAGIRVYWGQGTQVTVSS | high polyreactivity
43 | QVQLVESGGGLVQAGGSLRLSCAASGRIFVTNAMGWYRQAPGNERELVAGLNRSGDITYYADSVKGRFTISRDNAKNTVYLQMNSLKPEDTAVYYCAVDFYVYRWSPYGDVYRYDYWGQGTQVTVSS | high polyreactivity
